According to article PMC4572934:

Target: GST-tagged FXR ligand binding domain (FXR-LBD)
Assay: AlphaScreen or HTRF; FXR coactivator recruitment assay with increasing amounts of mometasone furoate (MF); GST-FXR-LBD on anti-GST acceptor beads, biotinylated SRC-1 peptide on streptavidin donor beads; 1 hour incubation with ligand, then 4 hours with beads

efficacy of SRC-1 recruitment with MF compared to CDCA: 12%
Substance: biotinylated SRC-1 peptide (co-activator)
